From US5994310A, “Peptide ligands for affinity purification of human Factor VIII” (Bayer Corporation, priority 1998, dated 1999)
Where no end group is shown, it is not given here.

Assays:
human Factor VIII [1] = target: T1, human Factor VIII (Homo sapiens, UniProt P00451); experiment: Secondary chromatography binding assay (ELISA quantitation of column fractions); settings: rhFVIII load 10 μg on peptide-resin column; for Elute Total μg: FVIII by ELISA in elution (Buffer C) fraction; for Flow-Through Total μg: FVIII by ELISA in flow-through fraction; for Salt Wash Total μg: FVIII by ELISA in salt wash (Buffer B) fraction
T1 construct: (the applicant)
T1 sequence (P00451 20-2351): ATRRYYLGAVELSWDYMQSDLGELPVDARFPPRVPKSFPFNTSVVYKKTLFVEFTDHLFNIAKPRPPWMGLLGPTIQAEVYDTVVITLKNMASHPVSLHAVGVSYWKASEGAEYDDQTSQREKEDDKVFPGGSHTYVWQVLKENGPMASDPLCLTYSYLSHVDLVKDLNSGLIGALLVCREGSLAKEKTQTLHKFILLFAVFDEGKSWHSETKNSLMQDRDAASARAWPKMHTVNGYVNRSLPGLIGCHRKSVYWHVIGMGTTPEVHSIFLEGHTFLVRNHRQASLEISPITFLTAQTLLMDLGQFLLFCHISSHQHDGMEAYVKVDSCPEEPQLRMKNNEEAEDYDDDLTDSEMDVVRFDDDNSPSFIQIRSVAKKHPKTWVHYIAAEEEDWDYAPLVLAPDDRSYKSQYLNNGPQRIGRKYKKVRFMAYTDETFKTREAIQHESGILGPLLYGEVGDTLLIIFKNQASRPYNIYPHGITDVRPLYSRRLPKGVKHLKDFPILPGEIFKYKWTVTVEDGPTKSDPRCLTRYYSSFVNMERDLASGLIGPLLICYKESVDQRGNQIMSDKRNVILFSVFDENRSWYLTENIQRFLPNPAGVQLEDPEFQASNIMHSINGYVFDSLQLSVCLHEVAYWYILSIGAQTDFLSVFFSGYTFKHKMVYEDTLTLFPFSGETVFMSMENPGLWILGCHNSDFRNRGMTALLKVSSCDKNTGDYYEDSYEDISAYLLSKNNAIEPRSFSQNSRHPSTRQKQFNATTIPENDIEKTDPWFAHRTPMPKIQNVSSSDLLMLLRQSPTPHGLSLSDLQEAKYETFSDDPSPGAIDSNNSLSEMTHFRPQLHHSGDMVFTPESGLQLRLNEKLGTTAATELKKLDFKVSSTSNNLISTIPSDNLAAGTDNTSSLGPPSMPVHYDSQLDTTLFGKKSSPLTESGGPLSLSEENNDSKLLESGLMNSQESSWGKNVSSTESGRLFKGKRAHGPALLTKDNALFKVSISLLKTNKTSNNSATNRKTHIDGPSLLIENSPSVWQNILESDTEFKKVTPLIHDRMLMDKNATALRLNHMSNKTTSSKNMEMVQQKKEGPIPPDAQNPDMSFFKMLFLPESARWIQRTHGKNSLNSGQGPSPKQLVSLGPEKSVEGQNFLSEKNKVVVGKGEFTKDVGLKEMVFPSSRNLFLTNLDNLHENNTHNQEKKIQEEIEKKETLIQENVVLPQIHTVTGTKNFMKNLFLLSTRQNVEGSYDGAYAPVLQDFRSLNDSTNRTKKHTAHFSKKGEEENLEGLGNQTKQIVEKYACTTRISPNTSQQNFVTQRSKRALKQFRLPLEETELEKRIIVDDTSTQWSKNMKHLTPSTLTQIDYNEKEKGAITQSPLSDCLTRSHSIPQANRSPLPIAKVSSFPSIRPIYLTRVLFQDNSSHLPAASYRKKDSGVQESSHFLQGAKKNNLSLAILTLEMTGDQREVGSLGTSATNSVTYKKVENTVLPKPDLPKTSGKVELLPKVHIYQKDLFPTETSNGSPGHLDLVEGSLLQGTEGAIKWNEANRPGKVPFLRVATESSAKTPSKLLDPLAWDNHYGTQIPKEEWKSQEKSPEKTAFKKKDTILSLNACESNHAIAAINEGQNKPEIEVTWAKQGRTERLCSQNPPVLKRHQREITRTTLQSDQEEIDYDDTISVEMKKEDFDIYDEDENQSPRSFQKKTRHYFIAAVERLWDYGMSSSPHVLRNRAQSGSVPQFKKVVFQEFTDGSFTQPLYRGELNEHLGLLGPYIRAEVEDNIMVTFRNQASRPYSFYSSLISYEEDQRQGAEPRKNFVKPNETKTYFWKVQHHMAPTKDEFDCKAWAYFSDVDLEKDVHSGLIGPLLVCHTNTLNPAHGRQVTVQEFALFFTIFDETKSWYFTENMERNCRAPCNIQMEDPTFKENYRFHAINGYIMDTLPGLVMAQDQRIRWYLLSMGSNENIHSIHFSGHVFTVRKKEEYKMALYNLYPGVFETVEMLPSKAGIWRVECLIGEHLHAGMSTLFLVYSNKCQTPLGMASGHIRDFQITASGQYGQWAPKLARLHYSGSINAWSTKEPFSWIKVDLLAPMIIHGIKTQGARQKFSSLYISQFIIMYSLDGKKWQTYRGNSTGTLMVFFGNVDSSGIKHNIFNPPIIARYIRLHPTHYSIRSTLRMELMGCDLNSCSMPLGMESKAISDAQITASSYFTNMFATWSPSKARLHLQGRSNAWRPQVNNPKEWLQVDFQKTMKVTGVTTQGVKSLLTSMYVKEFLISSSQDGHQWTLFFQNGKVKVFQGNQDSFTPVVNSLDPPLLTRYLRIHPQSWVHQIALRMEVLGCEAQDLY
Method: The secondary chromatography binding assays were performed upon a Michrom Bioresources HPLC (Auburn, Calif.). This binary system has the added advantage of a second injection loop which was outfitted with a 5 ml loop. This allowed addition of a third solvent during the HPLC run. Buffer A was 20 mM Imidazole, pH=7.0, 10 mM CaCl2, 300 mM NaCl, 0.01% Tween 80. Buffer B is the same as buffer A but with 1M NaCl and 1M CaCl2. Elution buffer (Buffer C) is the same as buffer A but with 40% ethylene glycol monomer and 250 mM CaCl2. Absorbance was monitored at 280 nm.
Confirmatory FVIII binding assays were performed in a column chromatographic format on the HPLC described above. Batch synthesized peptide-resin (substitution at 100 μmoles/g) was loaded and washed as described in Buettner, J., 1996, supra. The HPLC method injected the sample onto the column at 80 cm/hr linear velocity, allowed for flow-through of unbound protein, then stepped to 200 cm/hr for the wash with Buffer B (as described above), and then the bound protein eluted with Buffer C (as described above). FIGS. 1, 2 and 3 show the results from contacting a known amount of human Factor VIII to each of the preferred peptide-resins (sequence ID 1, 2 and 3, respectively).
Recombinant FVIII was applied to each column as described above. […] ELISA quantitation utilized a polyclonal antisera as capture antibody adsorbed onto the plate well, application of each fraction allowed the Factor VIII to adhere to the capture antibody. The making and using of polyclonal and monoclonal antibodies is well-know, and within the skill of one of ordinary skill in the art. See generally Antibodies, A Lab Manual, Harlow and Lane, eds., 1988, Cold Spring Harbor. Then a panel of 3 monoclonal antibodies were used to identify the Factor VIII and detection of these antibodies with a secondary-antibody enzyme conjugate allowed accurate quantitation of the Factor VIII. The flow-through fractions from each injection show greater than 96% target protein depletion by these peptide ligands. […] The binding avidity was weak enough to permit recovery of target protein during the elution phase of the chromatography.

human Factor VIII [2] = target: T1, human Factor VIII; experiment: Preparative hrFVIII purification by peptide resins, fractions assayed for Factor VIII activity (Coatest VIII:C/4); settings: load KG2DEAE 136 IU; for Elute Total IU / Flow-Through Total IU / Salt Wash Total IU: Coatest
Method: Preparative batch synthesis of the preferred sequences was performed using 10 g TSK resin (Toyopearl AF-Amino-650M, TosoHaas, Inc., Montgomeryville, Pa.) as described in Buettner, J., 1996, supra. […] Three injections of an in-process sample of human Factor VIII were contacted with each resin and fractions of flow-through, salt wash and elution were tested for biological activity, protein profile by SDS-PAGE, and target protein identification by Western blot analyses, as described in Buettner, J., 1996, supra. Biological activity was defined as the ability of the column fraction to reconstitute Factor VIII-depleted plasma to thereby activate Factor X to Factor Xa, with quantitation of enzymatic activity by spectrophotometric measurement of cleaved substrate. (Coatest VIII:C/4, Chromogenix, Molndal, Sweden).
FIGS. 4, 5 and 6 show the purification chromatograms for binding of the rhFVIII to SEQ IDs 1, 2 and 3, respectively. In each figure, the bottom HPLC trace is the buffer blank injection; the three other HPLC traces are subsequent injections of the KG2DEAE sample. For each chromatogram, flow-through occurs from t=0-22 minutes; salt wash at t=26-34 minutes; elution at t=44-54 minutes. Each fraction (flow-through, salt wash and elution) was collected and assayed for Factor VIII activity by the above described Coatest assay.

| Elute Total μg (human Factor VIII [1]) [µg] | Flow-Through Total μg (human Factor VIII [1]) [µg] | Salt Wash Total μg (human Factor VIII [1]) [µg] | Elute % Recovery (human Factor VIII [2]; inj 2) [%] | Purification (human Factor VIII [2]; inj 2) | Elute Total IU (human Factor VIII [2]; inj 2) [IU] | Flow-Through Total IU (human Factor VIII [2]; inj 2) [IU] | Salt Wash Total IU (human Factor VIII [2]; inj 2) [IU] | Elute % Recovery (human Factor VIII [2]; inj 3) [%] | Purification (human Factor VIII [2]; inj 3) | Elute Total IU (human Factor VIII [2]; inj 3) [IU] | Flow-Through Total IU (human Factor VIII [2]; inj 3) [IU] | Salt Wash Total IU (human Factor VIII [2]; inj 3) [IU] | Elute % Recovery (human Factor VIII [2]; inj 4) [%] | Purification (human Factor VIII [2]; inj 4) | Elute Total IU (human Factor VIII [2]; inj 4) [IU] | Flow-Through Total IU (human Factor VIII [2]; inj 4) [IU] | Salt Wash Total IU (human Factor VIII [2]; inj 4) [IU] | Substance |
| --- | --- | --- | --- | --- | --- | --- | --- | --- | --- | --- | --- | --- | --- | --- | --- | --- | --- | --- |
| 10.31 | 0.00 | 0.85 | 46 | 1.00 | 62 | 2 | 3 | 52 | 1.53 | 71 | 1 | 3 | 55 | 1.47 | 75 | 1 | 3 | His-Gln-Tyr-Gly-Tyr-His (HQYGYH; not fully specified; printed as His-Gln-Tyr-Gly-Tyr-His) |
| 5.31 | 0.03 | 0.14 | 26 | 1.15 | 35 | 5 | 2 | 41 | 1.75 | 56 | 2 | 2 | 40 | 1.64 | 54 | 6 | 5 | Trp-His-Tyr-Tyr-His-Gly (WHYYHG; not fully specified; printed as Trp-His-Tyr-Tyr-His-Gly) |
| 7.26 | 0.00 | 0.74 | 31 | 1.22 | 42 | 1 | 4 | 38 | 1.54 | 52 | 1 | 7 | 33 | 1.48 | 45 | 1 | 9 | His-Ile-Gln-His-Tyr-His (HIQHYH; not fully specified; printed as His-Ile-Gln-His-Tyr-His) |
